Paper PMC8257531, “ARL15 modulates magnesium homeostasis through N-glycosylation of CNNMs” (Cellular and Molecular Life Sciences: CMLS, 2021)

B2: CNNM2BAT (domain or fragment, UniProt Q9H8M5 429-584, looked up)
chain: KEELNIIQGALELRTKTVEDVMTPLRDCFMITGEAILDFNTMSEIMESGYTRIPVFEGERSNIVDLLFVKDLAFVDPDDCTPLKTITKFYNHPLHFVFNDTKLDAMLEEFKKGKSHLAIVQRVNNEGEGDPFYEVLGIVTLEDVIEEIIKSEILDE
notes: Bateman module (CBS1 and CBS2) of CNNM2, purified; theoretical mass of the monomer printed as 17.72 kDa; also called Bateman module of CNNM2

Experiments:
[1] = target: B2; assay: SEC; Superdex 200 Increase 10/300 GL, 1 mg/mL protein, 0.5 ml/min, 50 mM Hepes pH 8.5, 200 mM NaCl, 1 mM MgCl2, 1 mM TCEP; masses from a calibration line; settings: both partners purified
[2] = target: the molecule itself; assay: as above

B1: Pure ARL15 (gel filtration) (natural protein, UniProt Q9NXU5 1-204, looked up)
chain: MSDLRITEAFLYMDYLCFRALCCKGPPPARPEYDLVCIGLTGSGKTSLLSKLCSESPDNVVSTTGFSIKAVPFQNAILNVKELGGADNIRKYWSRYYQGSQGVIFVLDSASSEDDLEAARNELHSALQHPQLCTLPFLILANHQDKPAARSVQEIKKYFELEPLARGKRWILQPCSLDDMDALKDSFSQLINLLEEKDHEAVRM
notes: ARL15, purified; theoretical mass of the monomer printed as 19.57 kDa; The printed theoretical mass of 19.57 kDa is below that of whole ARL15, so a shortened construct is likely
In the case of B1, the “stoichiometry N” value [1] is reported as 1 ARL15 per CNNM2BAT (2:2) and the “stoichiometry N” value [2] is reported as 2.

For B2, the “stoichiometry N” value [2] was 2.
